Experimental data from the Human Domainome abundance scans (Beltran et al. 2025).
± gives the uncertainty stated by the source.

B1: Transcription elongation factor A N-terminal and central domain-containing protein, residues 30 to 77; numbered along this chain, Q8N8B7 (parent)
chain: LTELETIYVTKEHLQETDVVRAVYRVLKNCPSVALKKKAKCLLSKWKA

Variants of: B1
Assay: abundance fitness (aPCA) (normalised: wild type 0, dead -1); higher = more abundant; growth selection in yeast, the domain comes from the species named
Conditions: Homo sapiens
In the case of LTELETIYVTKEHLQTTDVVRAVYRVLKNCPSVALKKKAKCLLSKWKA [E16T], the abundance fitness is reported as -0.116 ± 0.12. Work on LTELETIYVTKEHLQVTDVVRAVYRVLKNCPSVALKKKAKCLLSKWKA [E16V] yielded an abundance fitness of -0.279 ± 0.087. With LTELETIYVTKEHLQHTDVVRAVYRVLKNCPSVALKKKAKCLLSKWKA [E16H] the abundance fitness was -0.153 ± 0.26. Variant LTELETIYVTKEHLQQTDVVRAVYRVLKNCPSVALKKKAKCLLSKWKA [E16Q] has an abundance fitness of 0.285 ± 0.25. In the case of LTELETIYVTKEHLQDTDVVRAVYRVLKNCPSVALKKKAKCLLSKWKA [E16D], the abundance fitness is reported as 0.043 ± 0.13. For LTELETIYVTKEHLQNTDVVRAVYRVLKNCPSVALKKKAKCLLSKWKA [E16N], the abundance fitness was -0.187 ± 0.15. For LTELETIYVTKEHLQCTDVVRAVYRVLKNCPSVALKKKAKCLLSKWKA [E16C], the abundance fitness was -0.03 ± 0.13. For LTELETIYVTKEHLQWTDVVRAVYRVLKNCPSVALKKKAKCLLSKWKA [E16W], the abundance fitness was -0.414 ± 0.15. Variant LTELETIYVTKEHLQFTDVVRAVYRVLKNCPSVALKKKAKCLLSKWKA [E16F] has an abundance fitness of 0.028 ± 0.14. LTELETIYVTKEHLQKTDVVRAVYRVLKNCPSVALKKKAKCLLSKWKA [E16K] gave an abundance fitness of -0.152 ± 0.18. LTELETIYVTKEHLQMTDVVRAVYRVLKNCPSVALKKKAKCLLSKWKA [E16M] gave an abundance fitness of 0.041 ± 0.12. For LTELETIYVTKEHLQPTDVVRAVYRVLKNCPSVALKKKAKCLLSKWKA [E16P], the abundance fitness was 0.009 ± 0.21. Work on LTELETIYVTKEHLQYTDVVRAVYRVLKNCPSVALKKKAKCLLSKWKA [E16Y] yielded an abundance fitness of -0.004 ± 0.12. Variant LTELETIYVTKEHLQATDVVRAVYRVLKNCPSVALKKKAKCLLSKWKA [E16A] has an abundance fitness of -0.017 ± 0.088. Work on LTELETIYVTKEHLQSTDVVRAVYRVLKNCPSVALKKKAKCLLSKWKA [E16S] yielded an abundance fitness of 0.021 ± 0.093. In the case of LTELETIYVTKEHLQITDVVRAVYRVLKNCPSVALKKKAKCLLSKWKA [E16I], the abundance fitness is reported as -0.28 ± 0.14. LTELETIYVTKEHLQRTDVVRAVYRVLKNCPSVALKKKAKCLLSKWKA [E16R] showed an abundance fitness of 0.123 ± 0.071. LTELETIYVTKEHLQGTDVVRAVYRVLKNCPSVALKKKAKCLLSKWKA [E16G] showed an abundance fitness of -0.008 ± 0.084. LTELETIYVTKEHLQETDAVRAVYRVLKNCPSVALKKKAKCLLSKWKA [V19A] gave an abundance fitness of -0.022 ± 0.11. LTELETIYVTKEHLQEGDVVRAVYRVLKNCPSVALKKKAKCLLSKWKA [T17G] showed an abundance fitness of -0.092 ± 0.072. In the case of LTELETIYVTKEHLQEHDVVRAVYRVLKNCPSVALKKKAKCLLSKWKA [T17H], the abundance fitness is reported as -0.37 ± 0.32. Variant LTELETIYVTKEHLQEKDVVRAVYRVLKNCPSVALKKKAKCLLSKWKA [T17K] has an abundance fitness of -0.14 ± 0.14. For LTELETIYVTKEHLQEPDVVRAVYRVLKNCPSVALKKKAKCLLSKWKA [T17P], the abundance fitness was 0.057 ± 0.15. LTELETIYVTKEHLQEQDVVRAVYRVLKNCPSVALKKKAKCLLSKWKA [T17Q] showed an abundance fitness of -0.649 ± 0.18. For LTELETIYVTKEHLQEWDVVRAVYRVLKNCPSVALKKKAKCLLSKWKA [T17W], the abundance fitness was -0.142 ± 0.11. Work on LTELETIYVTKEHLQEMDVVRAVYRVLKNCPSVALKKKAKCLLSKWKA [T17M] yielded an abundance fitness of 0.192 ± 0.15. Variant LTELETIYVTKEHLQENDVVRAVYRVLKNCPSVALKKKAKCLLSKWKA [T17N] has an abundance fitness of 0.149 ± 0.13. For LTELETIYVTKEHLQECDVVRAVYRVLKNCPSVALKKKAKCLLSKWKA [T17C], the abundance fitness was -0.103 ± 0.11. Variant LTELETIYVTKEHLQEYDVVRAVYRVLKNCPSVALKKKAKCLLSKWKA [T17Y] has an abundance fitness of -0.784 ± 0.27. Variant LTELETIYVTKEHLQEEDVVRAVYRVLKNCPSVALKKKAKCLLSKWKA [T17E] has an abundance fitness of -0.315 ± 0.13. In the case of LTELETIYVTKEHLQESDVVRAVYRVLKNCPSVALKKKAKCLLSKWKA [T17S], the abundance fitness is reported as -0.103 ± 0.1. LTELETIYVTKEHLQEADVVRAVYRVLKNCPSVALKKKAKCLLSKWKA [T17A] gave an abundance fitness of -0.43 ± 0.12. Variant LTELETIYVTKEHLQEIDVVRAVYRVLKNCPSVALKKKAKCLLSKWKA [T17I] has an abundance fitness of -0.654 ± 0.15. With LTELETIYVTKEHLQERDVVRAVYRVLKNCPSVALKKKAKCLLSKWKA [T17R] the abundance fitness was -0.099 ± 0.072. In the case of LTELETIYVTKEHLQEDDVVRAVYRVLKNCPSVALKKKAKCLLSKWKA [T17D], the abundance fitness is reported as -0.368 ± 0.17. Work on LTELETIYVTKEHLQEFDVVRAVYRVLKNCPSVALKKKAKCLLSKWKA [T17F] yielded an abundance fitness of -0.852 ± 0.24. Work on LTELETIYVTKEHLQEVDVVRAVYRVLKNCPSVALKKKAKCLLSKWKA [T17V] yielded an abundance fitness of -0.526 ± 0.098. LTELETIYVTKEHLQELDVVRAVYRVLKNCPSVALKKKAKCLLSKWKA [T17L] gave an abundance fitness of -0.892 ± 0.14. With LTELETIYVTKTHLQETDVVRAVYRVLKNCPSVALKKKAKCLLSKWKA [E12T] the abundance fitness was -0.068 ± 0.1. With LTELETIYVTKWHLQETDVVRAVYRVLKNCPSVALKKKAKCLLSKWKA [E12W] the abundance fitness was -0.71 ± 0.1. In the case of LTELETIYVTKEHDQETDVVRAVYRVLKNCPSVALKKKAKCLLSKWKA [L14D], the abundance fitness is reported as 0.184 ± 0.083. For LTELETIYVTKEHGQETDVVRAVYRVLKNCPSVALKKKAKCLLSKWKA [L14G], the abundance fitness was 0.252 ± 0.054. LTELETIYVTKEHWQETDVVRAVYRVLKNCPSVALKKKAKCLLSKWKA [L14W] gave an abundance fitness of 0.094 ± 0.06. Variant LTELETIYVTKEHYQETDVVRAVYRVLKNCPSVALKKKAKCLLSKWKA [L14Y] has an abundance fitness of -0.124 ± 0.18. Work on LTELETIYVTKEHEQETDVVRAVYRVLKNCPSVALKKKAKCLLSKWKA [L14E] yielded an abundance fitness of 0.336 ± 0.065. LTELETIYVTKEHTQETDVVRAVYRVLKNCPSVALKKKAKCLLSKWKA [L14T] showed an abundance fitness of 0.328 ± 0.087. In the case of LTELETIYVTKEHAQETDVVRAVYRVLKNCPSVALKKKAKCLLSKWKA [L14A], the abundance fitness is reported as 0.241 ± 0.064. LTELETIYVTKEHHQETDVVRAVYRVLKNCPSVALKKKAKCLLSKWKA [L14H] showed an abundance fitness of 0.294 ± 0.1. With LTELETIYVTKEHMQETDVVRAVYRVLKNCPSVALKKKAKCLLSKWKA [L14M] the abundance fitness was 0.16 ± 0.082. With LTELETIYVTKEHNQETDVVRAVYRVLKNCPSVALKKKAKCLLSKWKA [L14N] the abundance fitness was 0.235 ± 0.12. For LTELETIYVTKEHKQETDVVRAVYRVLKNCPSVALKKKAKCLLSKWKA [L14K], the abundance fitness was 0.23 ± 0.082. In the case of LTELETIYVTKEHQQETDVVRAVYRVLKNCPSVALKKKAKCLLSKWKA [L14Q], the abundance fitness is reported as 0.247 ± 0.1. With LTELETIYVTKEHVQETDVVRAVYRVLKNCPSVALKKKAKCLLSKWKA [L14V] the abundance fitness was 0.172 ± 0.065. With LTELETIYVTKEHSQETDVVRAVYRVLKNCPSVALKKKAKCLLSKWKA [L14S] the abundance fitness was 0.296 ± 0.066.
